Our source for the self-cleavage values is the RNAGym collection of RNA variant scans (doi:10.7554/elife.90254).

B1: LINE1-mini (parent)
chain: GGCAGAGCUCAACACAGCGUGGCAAAGUGGCUGUGGCUAGACUGCC

In this data set the parent is B1. Kind of data set: self-cleavage, relative activity (ratio to wild type); higher = more cleavage; in vitro, sequencing; the parent is a self-cleaving ribozyme.
For the variant G33C, the self-cleavage amounted to 0.07. Then G33A, with 0.11; and G33C C37A, with 0.03; and G33C C37G, with 0.04. Next, G33C C37U: 0.05; U32G U34G: 0.03. Next, U32G U34A: 0.04; U32G U34C: 0.06; G33A U34C: 0.09. Take G33A U34A: the self-cleavage was 0.09. Next, G33A U34G: 0.04; U32G G40C: 0.07. Next, U32G G40A: 0.05; U32G G40U: 0.11. Next, G33C G35A: 0.04.

Regarding G33C G35C, the self-cleavage came out at 0.04. Then G33C G35U, with 0.04; and U32C C46G, with 0.1; and U32C C46A, with 0.16. Consider U32C C46U, for which the self-cleavage was 0.2.

With U32G C42U, the self-cleavage stood at 0.11. Then U32G C42G, with 0.14; and U32G C42A, with 0.04; and U32C G44U, with 0.07.

As to U32C G44C, the self-cleavage is 0.09.

On to U32C G44A, for which the self-cleavage turned out to be 0.07. On to U32A U43C, for which the self-cleavage worked out at 0.04.

Take U32A U43G: the self-cleavage came out at 0.11. Then U32A U43A, with 0.08; and G33A C37G, with 0.04; and G33A C37A, with 0.12.

As for G33A C37U, the self-cleavage was 0.04. Then U32C G40U, with 0.07; and U32C G40C, with 0.03. Turning to U32C G40A, the self-cleavage came out at 0.06.

Turning to G33C C45G, the self-cleavage turned out to be 0.06. Then G33C C45A, with 0.04. Then G33C C45U, with 0.05; and U32G C37U, with 0.07; and U32G C37G, with 0.04.

In the case of U32G C37A, the self-cleavage was 0.09. Take U32G G36U: the self-cleavage worked out at 0.1. Then U32G G36C, with 0.05; and U32G G36A, with 0.09. For the variant U32A U38G, the self-cleavage came to 0.02.

U32A U38C: the self-cleavage worked out at 0.07. Then U32C G36C, with 0.04.

As for U32C G36A, the self-cleavage amounted to 0.08. Then U32C G36U, with 0.06; and U32C G33U, with 0.13; and U32C G33C, with 0.04. With U32C G33A, the self-cleavage came out at 0.05. Take G33A G35A: the self-cleavage amounted to 0.07. Then G33A G35U, with 0.1; and G33A G35C, with 0.05. Next, G33C G36U: 0.06; G33C G36A: 0.03. Consider G33C G36C, for which the self-cleavage is 0.04. With G33A A39G, the self-cleavage was determined as 0.09. Next, G33A A39U: 0.06. On to G33A A39C, for which the self-cleavage worked out at 0.08. Then U32G A41U, with 0.07; and U32G A41C, with 0.05. As for U32G A41G, the self-cleavage was 0.08.

U32G C45G: the self-cleavage turned out to be 0.11. Then U32G C45A, with 0.1. With U32G C45U, the self-cleavage amounted to 0.12. Take G33A G44U: the self-cleavage amounted to 0.03. Then G33A G44A, with 0.1; and G33A G44C, with 0.07. Next, U32G A39G: 0.8; U32G A39C: 0.09. As to U32G A39U, the self-cleavage turned out to be 0.1.

Consider G33A U38C, for which the self-cleavage is 0.17.

With G33A U38A, the self-cleavage came to 0.13. For the variant G33A U38G, the self-cleavage is 0.03. For G33C G44U, the self-cleavage stood at 0.04. For G33C G44A, the self-cleavage came to 0.03. As for G33C G44C, the self-cleavage is 0.04.

Regarding U32C C37U, the self-cleavage was 0.07. Regarding U32C C37A, the self-cleavage stood at 0.15.

Consider U32C C37G, for which the self-cleavage stood at 0.06.

As to U32C C45G, the self-cleavage was found to be 0.03. For U32C C45U, the self-cleavage is 0.12.

Consider U32C C45A, for which the self-cleavage came to 0.2. For U32C, the self-cleavage stood at 0.2. Consider U32G, for which the self-cleavage is 0.19. Then U32G G33A, with 0.08. Next, U32G G33U: 0.07. As to U32G G33C, the self-cleavage came out at 0.09. Take U32C G35C: the self-cleavage was 0.08. Next, U32C G35A: 0.06; U32C G35U: 0.12.

Regarding G33C U34A, the self-cleavage is 0.09. G33C U34C: the self-cleavage is 0.03. Next, G33C U34G: 0.07; U32G U38C: 0.12; U32G U38G: 0.03. Next, U32G U38A: 0.07; G33A G40C: 0.09. Next, G33A G40U: 0.09. As for G33A G40A, the self-cleavage came out at 0.07. In the case of U32G U43C, the self-cleavage came to 0.07. Next, U32G U43A: 0.04. Then U32G U43G, with 0.04; and U32C U34G, with 0.08. Next, U32C U34C: 0.16; U32C U34A: 0.05. On to G33C U38C, for which the self-cleavage turned out to be 0.04.

For G33C U38A, the self-cleavage is 0.04. Consider U32G G44C, for which the self-cleavage was found to be 0.06. Next, U32G G44U: 0.05; U32G G44A: 0.08; G33A A41G: 0.11. Consider G33A A41C, for which the self-cleavage amounted to 0.07. Next, G33A A41U: 0.11; G33A C42A: 0.08; G33A C42U: 0.14. In the case of G33A C42G, the self-cleavage stood at 0.06. Next, U32C A41C: 0.09; U32C A41U: 0.2; U32C A41G: 0.07. In the case of U32C C42A, the self-cleavage came out at 0.12.

For U32C C42G, the self-cleavage amounted to 0.1. Then U32C C42U, with 0.22; and U32C U38G, with 0.01. Then U32C U38C, with 0.06. As for U32C U38A, the self-cleavage was 0.37. Then G33A C45U, with 0.1; and G33A C45G, with 0.07; and G33A C45A, with 0.1. On to G33C A39C, for which the self-cleavage amounted to 0.09.

In the case of G33C A39G, the self-cleavage amounted to 0.03. Consider G33C A39U, for which the self-cleavage stood at 0.05. Take U32C A39G: the self-cleavage was 0.07.

Regarding U32C A39C, the self-cleavage came to 0.08. Next, U32C A39U: 0.15; G33A C46G: 0.08; G33A C46U: 0.12. Then G33A C46A, with 0.1; and G33A G36C, with 0.05; and G33A G36U, with 0.09.

Consider G33A G36A, for which the self-cleavage was 0.12.

Turning to G33A U43G, the self-cleavage came to 0.13.

As to G33A U43A, the self-cleavage was determined as 0.12. Next, G33A U43C: 0.05; G33C C42U: 0.06; G33C C42A: 0.06. Then G33C C42G, with 0.05; and G33C C46U, with 0.05.

In the case of G33C C46A, the self-cleavage turned out to be 0.03. Regarding G33C C46G, the self-cleavage amounted to 0.05. With U32C U43A, the self-cleavage was 0.05. For U32C U43G, the self-cleavage came out at 0.13. Next, U32C U43C: 0.05; G33C A41U: 0.08; G33C A41C: 0.05. As to G33C A41G, the self-cleavage came out at 0.04. As to U32G C46A, the self-cleavage turned out to be 0.2.

In the case of U32G C46U, the self-cleavage amounted to 0.17. Next, U32G C46G: 0.1. Then U32G G35U, with 0.06. Then U32G G35A, with 0.09. On to U32G G35C, for which the self-cleavage was 0.1. Consider G33C G40C, for which the self-cleavage worked out at 0.07. Then G33C G40A, with 0.05; and G33C G40U, with 0.06.
